# Laboratory results taken from the nanobody polyreactivity screen of Harvey et al. (2022).
# Experiment: yeast display, Sf9 membrane polyspecificity reagent, FACS + sequencing; frameworks hold sequencing errors
# In short: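 Nanobodies from a synthetic yeast display library (Saccharomyces cerevisiae BJ5465), induced 36–48 hours with galactose, were stained 1 hour at 4 °C with 10% biotinylated, detergent-solubilized Sf9 membrane reagent, enriched on streptavidin microbeads, then FACS-sorted. Anti-HA (expression) and streptavidin (reagent binding) fluorescence set low and high (top ~1%) gates. Polyreactivity labels come from the gate of origin. Genes were colony-PCR amplified, MiSeq 2 × 250 sequenced and filtered by CDR length.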
row,Sequence,polyreactivity (PSR sort gate)
1,QVQLVESGGGLVQAGGSLRLSCAATGFIFSYYAMGWYRQAPGKERELVATITSGGSTYYADSVKGRFTISRDNAKNTVYLQMNSLKPEDTAVYYCNADWYWRVYWGQGTQVTVSS,high polyreactivity
2,QVQLVESGGGLVQAGGSLRLSCAASGFIFWYNAMGWYRQAPGKERELVATISVASTYADSVKGRFTISRDNAKNTVYLQMNSLKPEDTAVYYCAADWAGWEGYRMDYWGQGTQVTVSS,low polyreactivity
3,QVQLVESGGGLVQAGRSLRLSCAASGITFYKNAMGWYRQAPGKERELVAAISSGGATTYADSVKGRFTISRDNAKNTVYLQMNSLKPEDSAVYYCAAVTRDYRNERRRQRYFYWGQGTQVTVSS,high polyreactivity
4,QVQLVESGGGLVQAGCSLRLRCAASGFTFQYNGMGWYRQAPGKERELVAAINWSGGTTYYADSVKGRFTISRDNAKNTVYLLMNCLKPEDTAVYYCAKGYWRRYSPVGGLGYDYWGQGTQVSVSS,high polyreactivity
5,QVQLVESGGGLVQAGGSLRLSCAASGSIFSFNAKGWYRQAPGKERELVAAITTSGGSTYYADSVKGRFTISRDNAKNTVYLQMNSLKPEDTAVYYCAAVRPDNSLYEPMDYWGQGTQVTVSS,low polyreactivity
6,QVQLVESGGGLVQAGGSLRLSCAASGFILSRYTMGWYRQAPGKERELVATISSGGRTYYADSVKGRFTISRDNAKNTVYLQMNSLKPEDTAVYYCAAAYTYWRIPGNRYLYDYWGQGTQVTVSS,high polyreactivity
7,QVQLVESGGGLVQAGGSLRLSCAASGFIFRRYTMGWYRQAPGKERELVATITRSVNTDYADSVKGRFTISRDNAKNTVYLQMNSLKPEDTAVYYCAARKYYYFPVAYDYWGQGTQVTVSS,high polyreactivity
8,QVQLVESGGGLVQAGGSLRLSCAASGSIFRDYTMGWYRQAPGKERELVAAIRQDGGTTTYADSVKGRFTISRDNAKNTVYLQMNSLKPEDTAVYLWGQGTQVTVSS,low polyreactivity
9,QVQLVESGGGLVQAGGSLRLSCAASGRIFYYYAMGWYRQAPGKERELVAAISWSGGSTYYADSVKGRFTISRDNAKNTVYLQMNSLKPEDTAVYYCAAESRKYREYYFWGQGTQVTVSS,high polyreactivity
10,QVQLVESGGGLVQAGGSLRLSCAASGRTFTHYAMGWYRQAPGKERELVAAISRSGGTTYYADSVKGRFTISRDNAKNTVYLQMNSLKPEDTAVYYCAARWWYRYNYDYWGQGTQVTVSS,high polyreactivity
11,QVQLVESGRGIVQAGGSLRLSCAASGSIFWLYAMGWYRQAPGKERELVAAISWSGTSTNYADSVKGRFTISRDNAKNTVYFQMNSLKPEDTAVYYCAKRWYNQKLFGYEEEYDYWGQGTQVTVSS,low polyreactivity
12,QVQLVESGGGLVQAGGSLRLSCAASGRTSSSNAMGWYRQAPGKERELVATISRTGSTYYADSVKGRFTISRDNAKNTVYLQMNSLKPEDTAVYYCNRYFSEALLHGSSYNRYYYWGQGTQVTVSS,low polyreactivity
13,QVQVVESGGGIVHAGGSLRLSCAASGFIFLVNGMVWYRQAPGKERELVAAISFDGGSTYADSVKGRFTISRDNAKNTVYLLMTSLKPEDTAVFYCATDVRGVDGEDYSWGQGTQVTVSS,low polyreactivity
14,QVQLEESGGGLVQAGGSLRLSCAASGRIFPYYPMGWYRQAPGKETELVATISGGGSTYYADSVKGRFTISRDNAKNTFYLQMNSLKPEDTAVYYCSARSWLRWASTPQWYRYEYWGQGTQVTVSS,low polyreactivity
15,QVQLVESGGGLVQAGASLRLSCAASGSIFYGNTMGWYRQAPGKERELVAAISSGGSTKYADSVKGRFTISRDNAKNTVYLQMNSLKPEDTAVYYCAADLPRYWVTWMDYWGQGTQVSVSS,low polyreactivity
16,QVQLVESGGGLVQAGGSLRLSCAASGRIFPKYAMGWYSQAPGKERELVAGITKRVGSTYYADSVKGRFTISRDNAKNTVYLQMNSLKPDDTAVYYCAADYRYLIDYLDPEKEGMDYWGQGTQVTVSS,low polyreactivity
17,QVQLVESGGGLVQAGGSLRLSCAASGRTFISYAMGWYRQAPGKERELVAGISTSGDNTYNADSVKGRFTISRDNAKNTVYLQMNSLKPEDTAVYYCAAGQDLHDFDYWGQGTQVTVSS,low polyreactivity
18,QVQLVESGGGLVQAGGSLRLSCAASGSIFEGYVMGWYRQAPGKERELVAGISRGSRTNYADSVKGRFTISRDNAKNTVYLQMNSLKPEDTAVYYCAAEYWGVYRGFVSSFDYWGQGTQVTVSS,high polyreactivity
19,QVQLVESGGGLVQAGGSLRLSCAASGITFRYYAMGWYRQAPGKERELVAAISRSGGRTYYADSVKGRFTISRDNAKNTVYLQMNSLKPEDTAVYYCAVAVRRGRAYDYWGQGTQVTVSS,high polyreactivity
20,QVQLVESGGGLVQAGGILRLSSDTSRSIFSTNGMGWYRPAHGKERELVAAMSTGGRKYYADSVKVRFTISRDNAKNTVYLQMNSLIPEDSAVFYCAIDHWTTSYDEGYYWGQGTQVTVSW,low polyreactivity
21,QVQLVESGGGLVQAGGSLRLSCGASGRIFNSNAMGWYRQAPGKERELVAASSWSGGTSYYADSVKGRFTISRDNAKNTVYLQLNSLKPEDTAVYYCNAVGLHWWPGDYWGQGTQVTVSS,low polyreactivity
22,QVQLVESGGGLVQAGGSLRLRCAASGFTFTKNAIGWYRQAPGKERELVAAITRRGSSTYYADSVKGRFTISRDNAKNTVYIQMNSLKPEDTAVYYCNADYETISGDYWGQGTQVTVSS,high polyreactivity

row,Sequence,polyreactivity (PSR sort gate)
1,QVQLVESGGGLVQAGGSLRLSCAASGFIFYYNAMVWYRQAPGKERELVAAITDDGGGTYYADSVKGRFTISRDNAKNTVYLQMNSLKPEDTAVYYCAADGYNYEHDYWGQGTQVTVSS,low polyreactivity
2,QVQLVESGRGLVQAGGSLRLSCAASGLIFGRNAMGWYIQAPGKERECVAANTSGGSTYYADSVKGRFTISRDNAKNSVYLQMNSLKPEDTAVYYCAADVVDLYLLDYWGQGTQVTVSS,low polyreactivity
3,QVQLVESGGGLVQAGGSLRLSCAASGSILWQYAMGWSRQAPGKERELVAAITYSGASTHYADSVKGRFTISRDNAKNTVYLQMNRLKPEDTAVYYCAAGYWYRYAALRYDHWGQGTQVTVSS,low polyreactivity
4,QVQLVESGGGLVQAGGSLRLSCAATGSTFVYYALGWYRPAPGKERELVAAITASGGGTYYADSVKGRFTISRDNAKNTVYLQMNSLKPEDTAVYYCNRGYDYWGQGTQVTGSS,low polyreactivity
5,QVQLVESGGGLVQAGGSLRLSCAASGFTFAFYDMGWYRQAPGKERELVAGISTSDGSTYYADSVKGRFTISRDNAKNTVYLQMNSLKPEDTAVYYCAASYYTYWWGYPVITFDYWGQGTQVTVSS,high polyreactivity
6,QVQLVESGGGLVQAGGSLRLSCAASGSIFDYYAMGWYRQAPGKERELVAAISTSTSSTYYADSVKGRFTISRDNAKNTVYFQMNSLKPEDTAVYYCAAEGESQPESPGYDYWGQGTQVTVSS,low polyreactivity
7,QVQLVESGGCLVQAGGSLRLSCAASGSTFKIYAMGWYRQAPWKERELVAAISWRGGRTYYADSVKGRFTISRDNAKNTVYLQMNSLKPEDTAVYYCDKGTRQGLEFWGQGTQVTVSS,high polyreactivity
8,QVQVVESGGGLVQAGGSLRLSCAASGYIFDYYAMGWYRQAPGKERELVAAISSSGGTTYYADSVKGRFTISRDNAKNTVYLQMNSLKPEDTAVYYCAADAVLPRSDYWGQGTQVTVSS,high polyreactivity
9,QVQLVESGGGLVQAGGSLRLSCAASRSIFSYNAMGWYRQAPGKGREFVAAITSSGTRKYYADSVQGRFTISRDNAMNTVYLQLNSLKPEDTAVYYCAADLRYDYWGQGTQVPVSS,high polyreactivity
10,QVQLVESGGGLVQAGGSLRLSCAASGSTFRWNAMGWYRQAPGKERELVAAISSGGRTYYADSVKGRFTISRDNAKNTVYLQMNSLKPEDTAVYYCSARTSRYYYYPYAFYWGQGTQVSVSS,high polyreactivity
11,QVQVVESGGGLVQAGGSLGLSCAASGGTFGYYAMGWYRQAPGKERELVAAINRSDGGTYYADSVKGRFTISRDKAKNTVYLQMTSLKPEDTAVYYCNADDFYYDEPYDYWGQGTQVTVSS,low polyreactivity
12,QVQLVESGGGLVQAGGSLRLSCAASGSILSHNAMGWYRQAPGKERELVAAITTSGSTTYADSVKGRFTISRDNAKNTVYLQMNSLKPEDTAVYYCNARPDSWSDTAQNRYDYWGQGTQVTVSS,low polyreactivity
13,KVQLVESGGGLVQAGGSLRLSCAASGFTFYIYAMGWYRPAPGKEREVVAAISARGGSTYYADSVKGRFTISRDNAKTTGYLQMNSLKPEDTAVDYCNALYIYAEIYGRGFWGQGTQVTVSS,high polyreactivity
14,QVQLVESGGGLVQAGGSLRLSCAASGSILTRNAMGWYRQAPAKEREFVARITYSGGRTYYADSVKGRFTISRDNAKNTVYLQMNSLKPEDTAVYYCAKTDRYSLGYWGQGTQVTVSS,low polyreactivity
15,QVQLVESGGGLVQAGVSLRLSCAASGSTFGENDMGWYRQAPGKERELVAAITWSGGSTYYADSVKGRFTISRDNAKNTVYLQMNSLNPEVTAVYYCNAEGVGRYSPVSHTFDYWGQGTQVTVSS,low polyreactivity
16,QVQLVESGGGLVQAGGSLRLSCAASGIIFPYYAMGWYRQAPGKERELVAAISIDGSTNYAVSVKGRFTISRDNAKNTVYLQMNSLKPEDTAVYYCNTTAFSTYQVGFLYDYWGQGTQVTVSS,low polyreactivity
17,QVQLVESGGGLVQAGGSLRLSCAASGGTFYRYAMGWYRQAPGKERELVAAISRGGSTTYADSVKGRFTISRDNAKNTVYLQMNSLKPEDTAVYYCAARYRCSLPAGLRLLGQGTQVTVSS,high polyreactivity
18,QVQLVESGGGLVQAGGSLRLSCAASGRIFKSYAMGWYRPAPGKERELVAAINWSGGSTYYADSVKGRFTISRDTAKNTVYLQMNSLKPEDTAVYYCNALYAVRSYDSWGQGTQVTVSS,high polyreactivity
19,QVQLVESGGGLVQAGGSLRLSCAASGYIFFNAMGWYRQAPGKERELVAAITYPVGSTHYADSVKGRFTISRDNAKNTVYLQMNSLKPEDTAVYYCAAEWYQYLRWYWTYEYYWGQGTQVTVSS,low polyreactivity
20,QVQLVESGGGLVQAGGSLRLSCAASGIIFDWYAMGWYRQAPGKERELVAAISYSGGTTYYADSVKGRFTISRDNAKNTVYFQMNSLTPEDTAVYYCAARYEGAAANYVEYGYWGLGTQVTVSS,low polyreactivity
21,QVQIVESGGGLVQAGGSHRLSCAASGSTFVYNAMGWYRQAPGIQRELVAAITVIGGRTYYADSVKGRFTISRDNAKNTVYLQMNSLKPEDTSVYYCNGTWAYRGHGYWGQGTEVTVSS,low polyreactivity
